Experimental findings from patent US7105164B1, “HIV-specific cytotoxic T-cell responses” (priority 1999, dated 2006) are described below.

Entries after “also recorded” stand apart in the source; their conditions may differ.

The target in one test is T1, HLA-A2 on T2 cells (Homo sapiens, UniProt P04439, D140Y/D185E/D98H/E176V/E277Q/G131W/G231S/I119V/I121R/I166T/I218V/L300P/L318F/N151K/N90K/P208A/P217A/Q86G/Q94H/R138H/R169H/T345S).
T1 construct: T2 cell line expressing the HLA-A2 molecules was obtained from Dr Peter Creswell; endogenous in cells; host or cells: T2 cell line (TAP-deficient human cell line)
The test can be described thus: in vitro HLA-A2 stabilization (peptide-induced MHC class 1 assembly assay, FACS) on T2 cells. The format is cell-based. Conditions: BB7.2 antibody, FACS, FIG. 1. Here is the method:
Location of the potential CTL containing motifs of the HIV-1 (LAI) Rev protein has been predicted by the reported peptide-binding motif algorithms. […] The ability of the peptides containing these motifs to bind and stabilize membrane-bound HLA-A2 molecule was assessed using the T2 cell line. The cell line has been well documented to have defective TAP transporter function resulting in the majority of the intracellularly generated peptides being unable to be transported into the endoplasmic reticulum to associate with the newly synthesized HLA class 1 molecules, i.e. HLA-A2 (see references 4, 5). […] Upon interaction with suitable peptides introduced exogenously, the stability of the HLA-A2 molecules can be restored.
T2 cell line expressing the HLA-A2 molecules was obtained from Dr Peter Creswell at the Howard Hughes Research Institute of Yale University. The cells were propagated in Iscove's complete medium (Iscove's medium supplemented with 10% heat-inactivated bovine serum, 120.0 units per ml of penicilin G sodium, 120 μg per ml of streptomycin sulphate, and 0.35 mg per ml of L-glutamine). The ability of individual 8 to 13 mer peptides, prepared as described in Example 1 and identified in Table 1, to bind and modulate the stability of the A2 molecules on T2 cells was determined using a peptide-induced MHC class 1 assembly assay, which was modified from a protocol described by Yuping Deng et al. (ref. 6).
In essence, 1×10^6 T2 cells were incubated with a specified concentration of the test peptide in 250.0 μl of Iscove's serum-free medium (Iscove's medium supplemented with 120.0 units per ml of penicillin G sodium, 120.0 μg per ml of streptomycin sulphate and 0.35 mg per ml of L-glutamine) in a sterile Eppendorf tube at 37° C. overnight. The cells were then incubated on ice for 30 min before 1.0 ml of Iscove's complete medium supplemented with 5.0 μg per ml of brefeldin A, 12.5 μg per ml of anisomycin and 5.0 μg per ml of cyclohexamide was added. The samples were then incubated for 3.0 hr in a 37° C. CO2 incubator.
In the presence of the drugs, further protein synthesis and intracellular delivery of HLA-A2 molecules to the cell surface are inhibited, and de-stabilization of the conformation of the membrane-bound class 1 molecules at the physiological temperature occurs.
The cells were then washed twice with ice-cold PBA (a buffer containing 0.9% sodium chloride, 0.5% bovine serum albumin and 0.02% sodium azide). 100.0 μl of PBA containing 5.0 μg of a conformation-sensitive HLA-A2-specific mouse monoclonal antibody, BB7.2 (ref. 7), was then added to each test sample. The reaction was allowed to take place on ice for 45 min. The cells were then washed three times with ice-cold PBA.
The binding of BB7.2 was then detected by adding […] containing 1.0 μg of goat anti-mouse IgG F(ab′) fluorescein (FITC) conjugate to each cell sample. After 30 min incubation on ice, the cells were washed twice with PBA, and twice again with PBS, pH 7.2. Cells were fixed immediately after washing was completed by adding 100.0 μl of 1.0% paraformaldehyde to the cell pellet. The cells were gently resuspended and were FACS analysed usually within three days after the experiments were completed.
The fluorescence index, which is an indicator for increased density of membrane-bound A2 molecules, was calculated by dividing the mean fluorescence of an experimental sample (peptide treated T2 cells) by the mean fluorescence of the control sample (T2 cells not treated with peptide).
“ILVESPAVL (Human immunodeficiency virus type 1) [CLP-72]”: the “binding to and stabilization of membrane-bound HLA-A2 (shift of fluorescent peak)” value is “bound to HLA-A2 on T2 cells; also recorded: able to bind and stabilize; also recorded: capable of binding to HLA-A2 on T2 cells”.
The same measure, in the same setting: the same measure for PLQLPPLERLIL [CLP-182]: “bound to HLA-A2 on T2 cells; also recorded: able to bind and stabilize; also recorded: capable of binding to HLA-A2 on T2 cells”; for “YLGRSAEPV (Human immunodeficiency virus type 1) [CLP-177]”: “bound to HLA-A2 on T2 cells; also recorded: able to bind and stabilize; also recorded: capable of binding to HLA-A2 on T2 cells”; for “YLGRSAEPVPL (Human immunodeficiency virus type 1) [CLP-178]”: “bound to HLA-A2 on T2 cells; also recorded: able to bind and stabilize; also recorded: capable of binding to HLA-A2 on T2 cells”.

The test is the same for the next values; noted with them: FIG. 1.
For “ILVESPAVL (Human immunodeficiency virus type 1) [CLP-72]”, the “order of potency by comparison of fluorescence indices” value is recorded as “CLP-177>CLP-72>CLP-178>CLP-182”.
Same read-out and setting: the same measure for PLQLPPLERLIL [CLP-182]: “CLP-177>CLP-72>CLP-178>CLP-182”; for “YLGRSAEPV (Human immunodeficiency virus type 1) [CLP-177]”: “CLP-177>CLP-72>CLP-178>CLP-182”.
As to “YLGRSAEPVPL (Human immunodeficiency virus type 1) [CLP-178]”, the “order of potency by comparison of fluorescence indices” value is reported as “CLP-177>CLP-72>CLP-178>CLP-182”.
